± gives the uncertainty stated by the source.
Test: self-splicing fitness, log relative to wild type (ln ratio); higher = more splicing; Tetrahymena group I intron in knt gene, E. coli kanamycin selection, DiMSum; sequences stand for … in CUCUCU…GGAGGGAAAAGUUAUCAGGCAUGCACCUGGUAGCUAGUCUUUAAACCAAUAGAUUGCAUCGGUUUAAAAGGCAAGACCGUCAAAUUGCGGGAAAGGGGUCAACAGCCGUUCAGUACCAAGUCUCAGGGGAAACUUUGAGAUGGCCUUGCAAAGGGUAUGGUAAUAAGCUGACGGACAUGGUCCUAACCACGCAGCCAAGUCCUAAGUCAACAGAUCUUCUGUUGAUAUGGAUGCAGUUCACAGACUAAAUGUCGGUCGGGGAAGAUGUAUUCUUCUCAUAAGAUAUAGUCGGACCUCUCCUUAAUGGGAGCUAGCGGAUGAAGUGAUGCAACACUGGAGCCGCUGGGAACUAAUUUGUAUGCGAAAGUAUAUUGAUUAGUUUUGGAGUACUCGUGGUCG
Method in brief: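 The eight P1ex-region nucleotides of an intron in the knt kanamycin-resistance gene on pET-22b(+) were all randomised and the library put into E. coli BL21(DE3). Six replicate transformations were grown overnight at 37°C or 30°C on LB agar with or without 25 μg/mL kanamycin, together with 100 μg/mL carbenicillin, 50 μM IPTG and 0.2% rhamnose. Colonies were pooled and amplicon-sequenced on an Illumina HiSeq 2500. Fitness from DiMSum is the error-weighted combination of wild-type-normalised replicate fold changes, kanamycin over none.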

Sequence | self-splicing fitness (ln) (30 °C) | self-splicing fitness (ln) (37 °C)
AUAUAGCAAUAUUACGGUCG | -1.44 ± 0.13 | -1.26 ± 0.17
AUAUAGCAAUAUUACGGUCU | -0.211 ± 0.076 | 0.0619 ± 0.1
AUAUAGCAAUAUUACGUCCG |  | -1.64 ± 0.43
AUAUAGCAAUAUUACGUCGC | -2.48 ± 0.27 | -1.31 ± 0.37
AUAUAGCAAUAUUACGUUCU | -1.47 ± 0.18 | -0.302 ± 0.21
AUAUAGCAAUAUUACGUUGA | -2.63 ± 0.22 | -2.53 ± 0.26
AUAUAGCAAUAUUACGUUUC | -2.54 ± 0.27 | -1.45 ± 0.3
AUCAAGCAAUAUUACGAGCG | -1.92 ± 0.12 | -1.21 ± 0.14
AUCAAGCAAUAUUACGAUUC | -2.14 ± 0.12 | -1.25 ± 0.16
AUCAAGCAAUAUUACGCAAA | -2.96 ± 0.2 | -1.67 ± 0.15
AUCAAGCAAUAUUACGCAGC | -2.12 ± 0.2 | -1.8 ± 0.25
AUCAAGCAAUAUUACGCAUA | -1.94 ± 0.099 | -0.751 ± 0.084
AUCAAGCAAUAUUACGCAUC | -3.97 ± 0.24 | -1.64 ± 0.14
AUCAAGCAAUAUUACGCUCG | -0.803 ± 0.091 | -0.236 ± 0.11
AUCAAGCAAUAUUACGGGAU | -2.33 ± 0.097 | -2.12 ± 0.13
AUCAAGCAAUAUUACGGGUA | -2.04 ± 0.11 | -1.16 ± 0.091
AUCAAGCAAUAUUACGGGUC | -3.33 ± 0.29 | -2.19 ± 0.27
AUCAAGCAAUAUUACGGUAU | -1.93 ± 0.063 | -0.833 ± 0.077
AUCAAGCAAUAUUACGGUCG | -2.22 ± 0.12 | -2.03 ± 0.14
AUCAAGCAAUAUUACGUCCC | -0.841 ± 0.076 | 0.17 ± 0.11
AUCAAGCAAUAUUACGUUAU | -2.29 ± 0.1 | -0.69 ± 0.09
AUCAAGCAAUAUUACGUUCU | -0.858 ± 0.092 | -0.459 ± 0.12
AUCCAGCAAUAUUACGAAAC | -2.56 ± 0.11 | -1.47 ± 0.16
AUCCAGCAAUAUUACGACAG | -3.47 ± 0.14 | -1.75 ± 0.19

Sequence | self-splicing fitness (ln) (30 °C) | self-splicing fitness (ln) (37 °C)
AUCCAGCAAUAUUACGAGCG | -2.01 ± 0.11 | -1.24 ± 0.12
AUCCAGCAAUAUUACGAGGA | -2.21 ± 0.17 | -1.49 ± 0.17
AUCCAGCAAUAUUACGAUAA | -1.56 ± 0.15 | -1.03 ± 0.19
AUCCAGCAAUAUUACGAUUU | -0.0954 ± 0.061 | 0.488 ± 0.081
AUCCAGCAAUAUUACGCCAG | -0.923 ± 0.44 | -2.6 ± 0.48
AUCCAGCAAUAUUACGCCAU | -3.28 ± 0.21 | -1.27 ± 0.14
AUCCAGCAAUAUUACGCCGC | -4.25 ± 0.46 | -2.58 ± 0.38
AUCCAGCAAUAUUACGCCGG | -3.51 ± 0.24 | -2.36 ± 0.41
AUCCAGCAAUAUUACGCCUC | -1.53 ± 0.089 | -1.06 ± 0.14
AUCCAGCAAUAUUACGCGUC | -3.24 ± 0.12 | -1.3 ± 0.13
AUCCAGCAAUAUUACGCUCC | -0.802 ± 0.12 | 0.304 ± 0.2
AUCCAGCAAUAUUACGGAUA | -3.19 ± 0.18 | -0.948 ± 0.12
AUCCAGCAAUAUUACGGUCA | -0.209 ± 0.065 | 0.168 ± 0.072
AUCCAGCAAUAUUACGGUCG | -0.645 ± 0.058 | 0.12 ± 0.089
AUCCAGCAAUAUUACGUUGC | -3.87 ± 0.14 | -2.86 ± 0.15
AUCGAGCAAUAUUACGAACC | -0.925 ± 0.36 | -0.838 ± 0.4
AUCGAGCAAUAUUACGAGAG | -3.84 ± 0.39 | -1.14 ± 0.19
AUCGAGCAAUAUUACGAUUU | -1.42 ± 0.11 | -0.535 ± 0.13
AUCGAGCAAUAUUACGCACC | -1.65 ± 0.18 | 
AUCGAGCAAUAUUACGCCUC | -2.06 ± 0.39 | -1.98 ± 0.45
AUCGAGCAAUAUUACGGAGA | -2.8 ± 0.22 | -2.7 ± 0.29
AUCGAGCAAUAUUACGGAGU | -3.83 ± 0.31 | -2.42 ± 0.23
AUCGAGCAAUAUUACGGGUU | -3.65 ± 0.23 | -2.32 ± 0.2
AUCGAGCAAUAUUACGGUCU | -3.03 ± 0.2 | -1.77 ± 0.2

Sequence | self-splicing fitness (ln) (30 °C) | self-splicing fitness (ln) (37 °C)
AUCGAGCAAUAUUACGUCGA | -2.83 ± 0.19 | -2.03 ± 0.19
AUCUAGCAAUAUUACGAACC | -1.08 ± 0.18 | -0.855 ± 0.2
AUCUAGCAAUAUUACGAACG | -0.816 ± 0.12 | -0.644 ± 0.22
AUCUAGCAAUAUUACGAAUC | -4.05 ± 0.36 | -3.15 ± 0.27
AUCUAGCAAUAUUACGACAC | -1.02 ± 0.11 | 0.13 ± 0.13
AUCUAGCAAUAUUACGAGAU | -2.88 ± 0.26 | -2.31 ± 0.34
AUCUAGCAAUAUUACGAGCU | -2.29 ± 0.17 | -0.565 ± 0.17
AUCUAGCAAUAUUACGAGUG | -1.41 ± 0.078 | -1.32 ± 0.12
AUCUAGCAAUAUUACGCAGA | -3.1 ± 0.49 | -1.82 ± 0.23
AUCUAGCAAUAUUACGCCCU | -0.479 ± 0.19 | 0.46 ± 0.19
AUCUAGCAAUAUUACGCUCG | -0.792 ± 0.091 | -0.0276 ± 0.12
AUCUAGCAAUAUUACGGACU | 0.0775 ± 0.11 | 0.443 ± 0.12
AUCUAGCAAUAUUACGGAGG | -1.93 ± 0.14 | -1.96 ± 0.23
AUCUAGCAAUAUUACGGCAA | -0.584 ± 0.14 | -0.113 ± 0.14
AUCUAGCAAUAUUACGGCCA | -1.06 ± 0.12 | -0.879 ± 0.13
AUCUAGCAAUAUUACGGGCG | -0.656 ± 0.1 | -0.967 ± 0.11
AUCUAGCAAUAUUACGGGGG | -1.65 ± 0.11 | -1.9 ± 0.15
AUCUAGCAAUAUUACGGGUC | -5.59 ± 0.41 | -2.49 ± 0.23
AUCUAGCAAUAUUACGGUUA | -0.746 ± 0.15 | -0.055 ± 0.12
AUCUAGCAAUAUUACGUACA | -1.73 ± 0.15 | 0.464 ± 0.17
AUCUAGCAAUAUUACGUCCA | -0.699 ± 0.14 | 0.279 ± 0.12
AUCUAGCAAUAUUACGUCCC | -0.434 ± 0.3 | -0.129 ± 0.27
AUCUAGCAAUAUUACGUCUU | -0.776 ± 0.077 | 0.147 ± 0.1
AUCUAGCAAUAUUACGUGUG | -2.16 ± 0.1 | -1.49 ± 0.12

Sequence | self-splicing fitness (ln) (30 °C) | self-splicing fitness (ln) (37 °C)
AUCUAGCAAUAUUACGUUAU | -1.79 ± 0.11 | -1.46 ± 0.11
AUCUAGCAAUAUUACGUUCU | -1.52 ± 0.09 | -0.607 ± 0.11
AUCUAGCAAUAUUACGUUUA | -2.26 ± 0.13 | -2.3 ± 0.13
AUGAAGCAAUAUUACGAGGC | -4.11 ± 0.27 | -2.77 ± 0.23
AUGAAGCAAUAUUACGAGUA | -2.12 ± 0.079 | -0.848 ± 0.088
AUGAAGCAAUAUUACGAGUG | -1.22 ± 0.056 | -0.514 ± 0.081
AUGAAGCAAUAUUACGAUAC | -0.832 ± 0.11 | -1.5 ± 0.17
AUGAAGCAAUAUUACGCCGA | -0.724 ± 0.11 | -0.149 ± 0.15
AUGAAGCAAUAUUACGCGCU | -0.561 ± 0.082 | 0.35 ± 0.11
AUGAAGCAAUAUUACGCUCU | -0.29 ± 0.15 | 0.111 ± 0.18
AUGAAGCAAUAUUACGGAAG | -1.17 ± 0.1 | -0.408 ± 0.16
AUGAAGCAAUAUUACGGAGA | -2.55 ± 0.33 | -0.873 ± 0.23
AUGAAGCAAUAUUACGGAUU | -1.08 ± 0.078 | -0.689 ± 0.1
AUGAAGCAAUAUUACGGGGG | -3.12 ± 0.24 | -2.49 ± 0.28
AUGAAGCAAUAUUACGUAUA | -1.53 ± 0.11 | -0.647 ± 0.11
AUGAAGCAAUAUUACGUGGG | -2.55 ± 0.11 | -2.67 ± 0.14
AUGAAGCAAUAUUACGUUCG | 0.356 ± 0.086 | 0.464 ± 0.12
AUGAAGCAAUAUUACGUUUU | -2.36 ± 0.12 | -1.7 ± 0.15
AUGCAGCAAUAUUACGAAUA | -2.68 ± 0.2 | -1.68 ± 0.16
AUGCAGCAAUAUUACGACGA | -0.531 ± 0.081 | -0.65 ± 0.089
AUGCAGCAAUAUUACGACUU | 0.39 ± 0.068 | 0.224 ± 0.075
AUGCAGCAAUAUUACGAGUA | -2.98 ± 0.19 | -1.53 ± 0.13
AUGCAGCAAUAUUACGAUAC | -2.96 ± 0.38 | 
AUGCAGCAAUAUUACGAUGC | -2.06 ± 0.14 | -0.432 ± 0.14

Reference: the supplement of paper PMC7877785
